The target in experiment [1] is T1, human CEACAM5 expressed on the surface of tumor cells (human, UniProt P06731 35-685).
T1 sequence: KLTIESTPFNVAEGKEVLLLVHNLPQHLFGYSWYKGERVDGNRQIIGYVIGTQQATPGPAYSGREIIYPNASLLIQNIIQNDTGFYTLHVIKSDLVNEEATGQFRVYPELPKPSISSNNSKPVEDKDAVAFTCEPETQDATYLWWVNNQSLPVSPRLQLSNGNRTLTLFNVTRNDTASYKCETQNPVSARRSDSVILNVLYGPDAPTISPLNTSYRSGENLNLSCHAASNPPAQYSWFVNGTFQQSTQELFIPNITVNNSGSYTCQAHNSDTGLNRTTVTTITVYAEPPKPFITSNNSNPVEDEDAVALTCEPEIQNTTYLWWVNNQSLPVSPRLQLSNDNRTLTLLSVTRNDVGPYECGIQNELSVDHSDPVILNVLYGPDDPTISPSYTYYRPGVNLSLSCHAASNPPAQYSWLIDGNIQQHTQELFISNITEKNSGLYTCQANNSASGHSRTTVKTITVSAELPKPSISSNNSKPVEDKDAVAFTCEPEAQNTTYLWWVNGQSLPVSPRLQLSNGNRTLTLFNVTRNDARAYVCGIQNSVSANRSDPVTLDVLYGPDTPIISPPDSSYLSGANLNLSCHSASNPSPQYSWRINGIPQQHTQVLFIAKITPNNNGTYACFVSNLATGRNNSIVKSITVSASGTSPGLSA
Put plainly: cell-based or functional assay.

The target of experiment [2] is T2, hCEACAM5, human CEACAM5 ECD (35-685) (human, UniProt P06731 35-685).
T2 construct: produced in HEK293; also called human CEACAM5 protein; human CEACAM5 extracellular domain
T2 sequence: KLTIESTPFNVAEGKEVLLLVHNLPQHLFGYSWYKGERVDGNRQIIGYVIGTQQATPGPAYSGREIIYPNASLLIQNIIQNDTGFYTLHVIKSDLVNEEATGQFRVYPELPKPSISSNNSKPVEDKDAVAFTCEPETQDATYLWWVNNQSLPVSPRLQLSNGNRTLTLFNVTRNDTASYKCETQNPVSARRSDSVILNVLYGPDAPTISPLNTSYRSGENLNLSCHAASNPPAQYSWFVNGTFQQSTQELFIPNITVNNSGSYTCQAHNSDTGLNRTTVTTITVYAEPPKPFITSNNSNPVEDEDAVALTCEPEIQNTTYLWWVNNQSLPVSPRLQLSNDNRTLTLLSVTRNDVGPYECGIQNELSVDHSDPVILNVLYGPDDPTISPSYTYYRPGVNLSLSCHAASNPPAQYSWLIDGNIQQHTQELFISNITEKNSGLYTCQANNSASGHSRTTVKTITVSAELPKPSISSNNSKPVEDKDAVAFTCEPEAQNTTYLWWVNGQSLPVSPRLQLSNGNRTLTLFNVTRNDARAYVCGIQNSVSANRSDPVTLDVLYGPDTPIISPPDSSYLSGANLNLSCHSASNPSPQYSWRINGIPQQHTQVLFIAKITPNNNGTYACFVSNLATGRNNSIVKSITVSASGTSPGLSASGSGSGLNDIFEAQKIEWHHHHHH
In words: ELISA, chimeric mAb.

Experiment [3] addresses T3, cCEACAM5, M. fascicularis CEACAM5 ECD (35-688) (Macaca fascicularis).
T3 construct: ECD followed by a 24 amino acid extension containing a His-Tag; also called cynomolgus CEACAM5; monkey CEACAM5
T3 chain: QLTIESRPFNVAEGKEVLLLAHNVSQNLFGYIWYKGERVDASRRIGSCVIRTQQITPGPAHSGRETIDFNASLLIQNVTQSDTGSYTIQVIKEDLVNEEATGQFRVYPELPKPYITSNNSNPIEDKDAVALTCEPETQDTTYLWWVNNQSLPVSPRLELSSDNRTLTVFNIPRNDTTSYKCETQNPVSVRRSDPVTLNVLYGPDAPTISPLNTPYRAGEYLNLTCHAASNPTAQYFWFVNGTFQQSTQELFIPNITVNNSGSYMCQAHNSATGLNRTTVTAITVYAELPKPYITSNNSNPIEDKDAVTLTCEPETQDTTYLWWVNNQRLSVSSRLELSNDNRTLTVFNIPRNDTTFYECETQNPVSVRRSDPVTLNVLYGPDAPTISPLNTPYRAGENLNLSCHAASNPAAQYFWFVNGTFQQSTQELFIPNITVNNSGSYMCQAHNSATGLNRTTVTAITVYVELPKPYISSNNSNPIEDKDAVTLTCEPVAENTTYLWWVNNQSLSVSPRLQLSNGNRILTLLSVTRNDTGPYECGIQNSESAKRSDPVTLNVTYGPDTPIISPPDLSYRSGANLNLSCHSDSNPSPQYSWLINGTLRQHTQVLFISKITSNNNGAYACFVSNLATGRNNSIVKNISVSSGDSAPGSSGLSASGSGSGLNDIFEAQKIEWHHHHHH
Put plainly: ELISA, chimeric mAb. In general terms: In an ELISA, binding on a coated surface is turned into a signal by an enzyme label.

Experiment [4] concerns the target T2, hCEACAM5, human CEACAM5 ECD (35-685). In words: ELISA, coated CEACAM5. On the procedure:
(§1) All CEACAM5-specific mAbs were assessed for their ability to bind human and primate CEACAM5 protein by ELISA. Plates were coated with human or primate CEACAM5 protein, anti-hCEACAM5 mAbs were added to the plate and detected with rabbit anti-mouse IgG conjugated with horseradish peroxidase (Sigma; # A9044). The antibody binding was visualized by adding TMB-H2O2 buffer and read at a wavelength of 450 nm.

In experiment [5] the target is T3, cCEACAM5, M. fascicularis CEACAM5 ECD …. Put plainly: ELISA, coated CEACAM5. On the procedure:
as §1

Experiment [6] concerns the target T1, human CEACAM5 expressed on the surface …. In words: flow cytometry on CR-IGR-034P primary colon tumor cells. On the procedure: (§2) Advanced human primary colon tumor CR-IGR-034P (Julien et al., Clin Cancer Res Oct. 1, 2012 18:5314-5328) was obtained from Patient-derived xenograft in mice. Tumor CR-IGR-034P was enzymatically dissociated using collagenase Type IV (Invitrogen; #17104-019) and deoxyribonuclease I (Invitrogen; #18047-019) for 1 h at […], Cell viability was estimated by Viacount application using Guava® easyCyte™ 8HT Flow Cytometry System. […] 100 μL/well of goat anti-mouse IgG conjugated with Alexa647 (Invitrogen; # A2135) or goat anti-human IgG conjugated with Alexa488 (Invitrogen; # A11013) was added for 45 min at 4° C. and washed three times with PBS 1% BSA. The antibody binding was evaluated after centrifugation and resuspension of cells by adding 200 pliwell PBS 1% BSA and read using Guava® easyCyte™ 8HT Flow Cytometry System. Apparent KD and EC50 values were estimated using BIOST@T-BINDING and BIOST@T-SPEED softwares, respectively.
A general note: A flow cytometer gives signals particle by particle.

For experiment [7] the target is unchanged. In words: apparent KD, flow cytometry on CR-IGR-034P primary colon tumor cells. On the procedure: as §2

Ten molecules from US20220340682A1 (Sanofi, published 2022) can be followed below.

B1: MAb1-SPDB-DM4 (other)
VH: EVMLVESGGGLVKPGGSLKLSCAASGFTFSSYAMSWVRQTPEKRLEWVATISSGGSYIYYLDSVKGRFTISRDNAKNTLYLQMSSLRSEDTAMYYCARPAYYGNPAMDYWGQGTSVTVSS
VL: DILMTQSQKFMSTSVGDRVSVTCKASQNVGTNVAWYQQKPGQSPKPLIYSASYRYSGVPDRFTGSGSGTDFTLTISNVQSEDLAEYFCQQYNSYPLYTFGGGTKLEIK
modifications: maytansinoid DM4 conjugated through SPDB linker; attachment residues not stated
Regarding B1, in experiment [1], the “Cytotoxic activity IC50 (nM) on MKN45 cells” value (“Cytotoxic activity IC50 (nM)” for short) stood at 0.89 nM.

B2: MAb3-SPDB-DM4 (other)
VH: EVKLVESGGGLVKPGGSLTLPCAASGFTFSRYAMSWVRQTPEKRLEWVASISSGGDTYYPDSVKGRFTVSRDNARNILFLQMSSLRSEDTGMYYCARVNYYDSSFLDWWGQGTTLTVSS
VL: DIVMTQSQRFMSTLEGDRVSVTCKASQNVGTNVAWYQQKPGQSPKALIYSASYRYSGVPDRFTGSGSGTDFTLTISNVQSEDLAEYFCQQYNNYPLYTFGGGTKLEIK
modifications: maytansinoid DM4 conjugated through SPDB linker; attachment residues not stated
Consider B2, for which, in experiment [1], the “Cytotoxic activity IC50 (nM)” value was determined as 0.53 nM.

B3: chMAb1 (antibody, human IgG1, kappa, V domains shown)
VH: EVMLVESGGGLVKPGGSLKLSCAASGFTFSSYAMSWVRQTPEKRLEWVATISSGGSYIYYLDSVKGRFTISRDNAKNTLYLQMSSLRSEDTAMYYCARPAYYGNPAMDYWGQGTSVTVSS
VL: DILMTQSQKFMSTSVGDRVSVTCKASQNVGTNVAWYQQKPGQSPKPLIYSASYRYSGVPDRFTGSGSGTDFTLTISNVQSEDLAEYFCQQYNSYPLYTFGGGTKLEIKR
notes: Chimeric, human IgG1 / Ckappa
Usually EC50 stands for the concentration at which the effect is half-maximal. Low values mean higher potency in that assay, high ones lower potency in that assay. B3: the EC50 in experiment [2] is 0.51 nM; in experiment [3], 1.57 nM.

B4: chMab2K52R (antibody, human IgG1, kappa, V domains shown)
VH: EVQLQESGGVLVKPGGSLKLSCAASGFVFSSYDMSWVRQTPEKRLEWVAYISSGGGITYFPDTVQGRFTVSRDNAKNTLYLQMNSLKSEDTAIYYCAAHYFGSSGPFAYWGQGTLVTVSA
VL: DIQMTQSPASLSASVGETVTITCRASENIFSYLAWYQQKQGKSPQLLVYNTRTLAEGVPSRFSGSGSGTQFSLKINSLQPEDFGSYYCQHHYGTPFTFGSGTKLEIKR
notes: Chimeric MAb2 with K52R in CDR2-L
As for B4, the values for the EC50 in experiment [2] and in experiment [3] were 0.11 nM and 0.15 nM, respectively.

B5: chMAb4 (antibody, human IgG1, kappa, V domains shown)
VH: EVQLVESGGGLVKPGGSLKLSCAASGFTFSSYDMSWVRQTPEKRLEWVAFISSYGGRTYYADTVKGRFTISRDNAKNTLYLQMSSLKSEDTAMFYCAAHYFGTSGPFAYWGQGTLVTVSA
VL: DIQMTQSPASLSASVGETVTITCRASENIYSYFAWYQQKQGKSPQLLVYNAKILAEGVPSRFSGSGSGTQFSLKINSLQPEDFGTYYCQHHYGIPFTFGSGTKLELKR
notes: Chimeric, human IgG1 / Ckappa
On to B5, for which the figures for the concentration for a half-maximal effect (EC50) in experiment [2] and in experiment [3] were 0.14 nM and 0.12 nM, respectively.

B6: MAb5-SPDB-DM4 (other)
VH: ELQLVESGGVLVKPGGSLKLSCAASGFAFSSYDMSWVRQTPEKRLEWVTYINSGGGITYYPDTVKGRFTISRDNARNTLYLQMSSLKSEDTAIYYCTAHYFGSSGPFAYWGQGTLVTVSA
VL: DIQMTQSPASLSASVGETVTITCRASENIYSYLAWYQQKQGKSPQLLVYNAKTLTEGVPSRFSGSGSGTQFSLKINSLQPEDFGSYYCQHHYGTPFTFGSGTKLEIK
modifications: maytansinoid DM4 conjugated through SPDB linker; attachment residues not stated
For the molecule B6, the “Cytotoxic activity IC50 (nM)” value in experiment [1] stood at 0.24 nM.

B7: MAb2-SPDB-DM4 (other)
VH: EVQLQESGGVLVKPGGSLKLSCAASGFVFSSYDMSWVRQTPEKRLEWVAYISSGGGITYFPDTVQGRFTVSRDNAKNTLYLQMNSLKSEDTAIYYCAAHYFGSSGPFAYWGQGTLVTVSA
VL: DIQMTQSPASLSASVGETVTITCRASENIFSYLAWYQQKQGKSPQLLVYNTKTLAEGVPSRFSGSGSGTQFSLKINSLQPEDFGSYYCQHHYGTPFTFGSGTKLEIK
modifications: maytansinoid DM4 conjugated through SPDB linker; attachment residues not stated
For B7, the “Cytotoxic activity IC50 (nM)” value in experiment [1] was found to be 0.14 nM.

B8: MAb4-SPDB-DM4 (other)
VH: EVQLVESGGGLVKPGGSLKLSCAASGFTFSSYDMSWVRQTPEKRLEWVAFISSYGGRTYYADTVKGRFTISRDNAKNTLYLQMSSLKSEDTAMFYCAAHYFGTSGPFAYWGQGTLVTVSA
VL: DIQMTQSPASLSASVGETVTITCRASENIYSYFAWYQQKQGKSPQLLVYNAKILAEGVPSRFSGSGSGTQFSLKINSLQPEDFGTYYCQHHYGIPFTFGSGTKLELK
modifications: maytansinoid DM4 conjugated through SPDB linker; attachment residues not stated
Turning to B8, in experiment [1], the “Cytotoxic activity IC50 (nM)” value amounted to 0.96 nM.

B9: chMAb5 (antibody, human IgG1, kappa, V domains shown)
VH: ELQLVESGGVLVKPGGSLKLSCAASGFAFSSYDMSWVRQTPEKRLEWVTYINSGGGITYYPDTVKGRFTISRDNARNTLYLQMSSLKSEDTAIYYCTAHYFGSSGPFAYWGQGTLVTVSA
VL: DIQMTQSPASLSASVGETVTITCRASENIYSYLAWYQQKQGKSPQLLVYNAKTLTEGVPSRFSGSGSGTQFSLKINSLQPEDFGSYYCQHHYGTPFTFGSGTKLEIKR
notes: Chimeric, human IgG1 / Ckappa
As to B9, the values for the EC50 in experiment [2] and in experiment [3] were 0.18 nM and 0.13 nM, respectively.

B10: antibody MAb2 (antibody, mouse IgG1, V domains shown)
VH: EVQLQESGGVLVKPGGSLKLSCAASGFVFSSYDMSWVRQTPEKRLEWVAYISSGGGITYFPDTVQGRFTVSRDNAKNTLYLQMNSLKSEDTAIYYCAAHYFGSSGPFAYWGQGTLVTVSA
VL: DIQMTQSPASLSASVGETVTITCRASENIFSYLAWYQQKQGKSPQLLVYNTKTLAEGVPSRFSGSGSGTQFSLKINSLQPEDFGSYYCQHHYGTPFTFGSGTKLEIK
notes: Murine IgG1, kappa; Rows are tied to the label as printed
Regarding B10, the figures for the 50% effective concentration (EC50) in experiment [4], in experiment [5] and in experiment [6] were 0.14 nM, 0.07 nM and 0.53 nM, respectively. Besides, in experiment [5], the “Ratio c/h (EC50 on cCEACAM5 against EC50 on hCEACAM5)” value stood at 0.5. In addition, the Kd in experiment [7] worked out at 0.38 nM.
